Reference: publication PMC3728706

B1: Synip PDZ domain (domain or fragment)
chain: AFRVITVTKETGLGLKILGGINRNEGPLVYIHEVIPGGDCYKDGRLKPGDQLVSINKESMIGVSFEEAKSIITRAKLRSESPWEIAF
B2: Tip1 PDZ domain (domain or fragment)
chain: RVEIHKLRQGENLILGFSIGGGIDQDPSQNPFSEDKTDKGIYVTRVSEGGPAEIAGLQIGDKIMQVNGWDMTMVTHDQARKRLTKRSEEVVRLLVTRQ
B3: Shank3 PDZ domain (domain or fragment)
chain: VAILQKRDHEGFGFVLRGAKAETPIEEFTPTPAFPALQYLESVDVEGVAWRAGLRTGDFLIEVNGVNVVKVGHKQVVGLIRQGGNRLVMKVVSVT
B4: PDZ11 PDZ domain (domain or fragment)
chain: IVTLKKPPGAQLGFNIRGGKASQLGIFISKVIPDSDAHRAGLQEGDQVLAVNDVDFQDIEHSKAVEILKTAREISMRVRFFPY
B5: Tiam2 PDZ domain (domain or fragment)
chain: DVQLTKTGDMTDFGFAVTVQVDEHQHLNRIFISDVLPDSLAYGGGLRKGNEITSLNGEPVSDLDIQQMEALFSEKSVGLTLVARPVT

The molecules below were run against fluorescently labeled peptide derived from the C-terminus of β-catenin (assay: fluorescence polarisation).

Molecule	Kd
NHERF-1 PDZ domain (domain or fragment)	20 µM
Grip1 PDZ domain (domain or fragment)	369 µM
Magi-3 PDZ domain (domain or fragment)	1 µM
SAP97 PDZ domain (domain or fragment)	342 µM
PDZk7 PDZ domain (domain or fragment)	103 µM
Erbin PDZ domain (from UniProt Q80TH2 1311-1400) (domain or fragment)	6 µM
Magi-2 PDZ domain (domain or fragment)	0.6 µM
PDZk3 PDZ domain (domain or fragment)	207 µM
Scrib PDZ domain (domain or fragment)	13 µM
Magi-1 PDZ domain 6 (domain or fragment)	1 µM
Pard3 PDZ domain (domain or fragment)	100 µM
LIN7 PDZ domain (from UniProt O88951 93-175) (domain or fragment)	25 µM
PSD95 PDZ domain (domain or fragment)	31 µM
PTP-BL PDZ domain (domain or fragment)	79 µM
B1	276 µM
B2	0.3 µM
B3	9 µM
B4	333 µM
B5	1 µM
